Data published in publication PMC10899662, “TopBP1 utilises a bipartite GINS binding mode to support genome replication” (Nature Communications, 2024).

Test system: GINS
Test: Pulldown of recombinant TopBP1-BRCT0-5 by immobilised GINS, 150 mM NaCl
Type: binding
Details: for GINS binding? (rec. proteins): summary of recombinant protein interaction tests (yes/no); for GINS interaction: 100 nM TopBP1, 20 mM HEPES pH 8.0, 150 mM NaCl, 0.01% Tween-20, 45 min, 4 °C
Text: Fig. 1 GINS and TopBP1 interact. a (i) Domain model of human (hs) TopBP1, its conservation with BRCT1/2 and 3/4 domains (grey boxes) of budding yeast Dpb11 (scDpb11). Arrows point to binding domains for interacting proteins. (ii) Overview of TopBP1 wild type (WT) and BRCT deletion (Δ) and point mutants. GINS binding capabilities are labelled in red and green. Numbers, amino acid position; capital letters indicate amino acid substitutions. Amino acid substitutions of point mutants in BRCT4 (B4mut) and 5 (B5mut) are coloured orange. b Elution profiles of size exclusion chromatography (Superdex200) of individual recombinant TopBP1-BRCT0-5 protein (grey) and GINS tetramers (green), or of both upon incubation (blue). c Recombinant GINS immobilised on Flag-beads and control beads (Flag peptide-coupled beads) were used to pull down recombinant TopBP1-0-5-WT or TopBP1-ΔBRCT4/5 (compare a(ii)). SDS gels were silver stained. kDa specifies molecular weight marker bands. The experiment was done more than three times with similar results. Source data are provided as a Source data file. TEXT PRINTED IN THE PICTURE: (a) BRCT0-5-WT: GINS binding? (rec. proteins): yes | (a) ΔBRCT4/5: GINS binding? (rec. proteins): no | (a) ΔBRCT3: GINS binding? (rec. proteins): yes | (a) ΔBRCT0/1/2: GINS binding? (rec. proteins): yes | (a) B5mut: GINS binding? (rec. proteins): yes | (a) B4mut: GINS binding? (rec. proteins): no
Fig. 2 Protein structure of the GINS-TopBP1-BRCT4/5 complex. a Structural model of the GINS-TopBP1-BRCT4/5 complex. Crystal structures of the GINS subunits (PDB:2E9X) (shades of green, yellow), and the central BRCT4/5 domain of TopBP1 (PDB:3UEN) (grey) were docked into the cryo-EM volume shown as transparent volume. b Zoom-in of the BRCT4-Psf1 interface. The residues in stick representation appear crucial for the interface. Mutations to break the interaction are coloured pink (Psf1-I97R) and purple (TopBP1-B4mut; compare Fig. 1a(ii)). c Pulldown of the indicated recombinant TopBP1-BRCT0-5-strep versions (see Fig. 1a(ii)) by Flag-beads-immobilised recombinant GINS or Flag peptide-coupled control beads. Analysis was done by immunoblotting. The experiment was done more than three times with similar results. d Pulldown of the indicated recombinant TopBP1-BRCT0-5-WT-strep using immobilised GINS-WT or GINS carrying a Ile97 to arginine mutation in Psf1.TopBP1-Gcc/B4mut-strep (Figs. 1a(ii) and 3a) was used as a non-GINS binding control. The experiment was done twice with similar results. Source data are provided as a Source data file.
Fig. 3 The conserved core of the TopBP1-GINI domain is required for a stable interaction with GINS. a Domain model and T-COFFEE alignment (one-letter aa code) of TopBP1 proteins from humans (Q92547) Xenopus laevis (Q7ZZY3), Bos taurus (A0A3Q1LWE4) and Rattus norvegicus (A0A8I6GFZ6). Coloured boxes indicate GINI region mutants in sub-regions I (blue), II (green) and III (orange), and in the GINI core helix (red) (details in Supplementary Fig. 7). Amino acid substitutions, names of GINI core region mutations and corresponding GINS binding capabilities are shown. ., : and * indicate low conservation, high conservation and identical amino acids, respectively. b/c Pulldown of recombinant TopBP1-BRCT0-5-strep-WT or the indicated GINI region mutants (a) by bead-immobilised GINS or Flag peptide-coupled control beads. Analysis was done by immunoblotting. The experiments were done more than three times with similar results. Source data are provided as a Source data file. d Fluorescence polarisation measurements including dissociation constants (kD) calculations using recombinant GINS tetramer and fluorescently labelled TopBP1-GINI-core peptides (WT or Gpp (a)). For each peptide n = 3 independent experiments and data are presented as mean values +/−SEM. TEXT PRINTED IN THE PICTURE: (a) TopBP1-Gcc: GINS binding? (rec. proteins): no | (a) TopBP1-Gcore: GINS binding? […]

Molecule | GINS binding? (rec. proteins) | GINS interaction
TopBP1-BRCT0-5-WT: recombinant TopBP1 amino acids 1–766, strep-tagged (protein, left off: Strep, C-terminal, kept, recombinant TopBP1 amino acids 1–766, strep-tagged) MSRNDKEPFFVKFLKSSDNSKCFFKALESIKEFQSEEYLQIITEEEALKIKENDRSLYICDPFSGVVFDHLKKLGCRIVGPQVVIFCMHHQRCVPRAEHPVYNMVMSDVTISCTSLEKEKREEVHKYVQMMGGRVYRDLNVSVTHLIAGEVGSKKYLVAANLKKPILLPSWIKTLWEKSQEKKITRYTDINMEDFKCPIFLGCIICVTGLCGLDRKEVQQLTVKHGGQYMGQLKMNECTHLIVQEPKGQKYECAKRWNVHCVTTQWFFDSIEKGFCQDESIYKTEPRPEAKTMPNSSTPTSQINTIDSRTLSDVSNISNINASCVSESICNSLNSKLEPTLENLENLDVSAFQAPEDLLDGCRIYLCGFSGRKLDKLRRLINSGGGVRFNQLNEDVTHVIVGDYDDELKQFWNKSAHRPHVVGAKWLLECFSKGYMLSEEPYIHANYQPVEIPVSHKPESKAALLKKKNSSFSKKDFAPSEKHEQADEDLLSQYENGSSTVVEAKTSEARPFNDSTHAEPLNDSTHISLQEENQSSVSHCVPDVSTITEEGLFSQKSFLVLGFSNENESNIANIIKENAGKIMSLLSRTVADYAVVPLLGCEVEATVGEVVTNTWLVTCIDYQTLFDPKSNPLFTPVPVMTGMTPLEDCVISFSQCAGAEKESLTFLANLLGASVQEYFVRKSNAKKGMFASTHLILKERGGSKYEAAKKWNLPAVTIAWLLETARTGKRADESHFLIENSTKEERSLETEITNGINLNSDTAEHP | yes | 
TopBP1-B4mut: Val590, Thr606 and Val610 mutated to glutamate, arginine and glutamate (protein, left off: Strep, C-terminal, kept) MSRNDKEPFFVKFLKSSDNSKCFFKALESIKEFQSEEYLQIITEEEALKIKENDRSLYICDPFSGVVFDHLKKLGCRIVGPQVVIFCMHHQRCVPRAEHPVYNMVMSDVTISCTSLEKEKREEVHKYVQMMGGRVYRDLNVSVTHLIAGEVGSKKYLVAANLKKPILLPSWIKTLWEKSQEKKITRYTDINMEDFKCPIFLGCIICVTGLCGLDRKEVQQLTVKHGGQYMGQLKMNECTHLIVQEPKGQKYECAKRWNVHCVTTQWFFDSIEKGFCQDESIYKTEPRPEAKTMPNSSTPTSQINTIDSRTLSDVSNISNINASCVSESICNSLNSKLEPTLENLENLDVSAFQAPEDLLDGCRIYLCGFSGRKLDKLRRLINSGGGVRFNQLNEDVTHVIVGDYDDELKQFWNKSAHRPHVVGAKWLLECFSKGYMLSEEPYIHANYQPVEIPVSHKPESKAALLKKKNSSFSKKDFAPSEKHEQADEDLLSQYENGSSTVVEAKTSEARPFNDSTHAEPLNDSTHISLQEENQSSVSHCVPDVSTITEEGLFSQKSFLVLGFSNENESNIANIIKENAGKIMSLLSRTEADYAVVPLLGCEVEARVGEEVTNTWLVTCIDYQTLFDPKSNPLFTPVPVMTGMTPLEDCVISFSQCAGAEKESLTFLANLLGASVQEYFVRKSNAKKGMFASTHLILKERGGSKYEAAKKWNLPAVTIAWLLETARTGKRADESHFLIENSTKEERSLETEITNGINLNSDTAEHP | no | strongly compromised in its ability to bind GINS
TopBP1-Gpp: TopBP1-BRCT0-5, central leucine-leucine motif mutated to two consecutive prolines (protein, left off: Strep, C-terminal, kept, TopBP1-BRCT0-5, central leucine-leucine motif mutated to two consecutive prolines) MSRNDKEPFFVKFLKSSDNSKCFFKALESIKEFQSEEYLQIITEEEALKIKENDRSLYICDPFSGVVFDHLKKLGCRIVGPQVVIFCMHHQRCVPRAEHPVYNMVMSDVTISCTSLEKEKREEVHKYVQMMGGRVYRDLNVSVTHLIAGEVGSKKYLVAANLKKPILLPSWIKTLWEKSQEKKITRYTDINMEDFKCPIFLGCIICVTGLCGLDRKEVQQLTVKHGGQYMGQLKMNECTHLIVQEPKGQKYECAKRWNVHCVTTQWFFDSIEKGFCQDESIYKTEPRPEAKTMPNSSTPTSQINTIDSRTLSDVSNISNINASCVSESICNSLNSKLEPTLENLENLDVSAFQAPEDLLDGCRIYLCGFSGRKLDKLRRLINSGGGVRFNQLNEDVTHVIVGDYDDELKQFWNKSAHRPHVVGAKWLLECFSKGYMLSEEPYIHANYQPVEIPVSHKPESKAALLKKKNSSFSKKDFAPSEKHEQADEDPPSQYENGSSTVVEAKTSEARPFNDSTHAEPLNDSTHISLQEENQSSVSHCVPDVSTITEEGLFSQKSFLVLGFSNENESNIANIIKENAGKIMSLLSRTVADYAVVPLLGCEVEATVGEVVTNTWLVTCIDYQTLFDPKSNPLFTPVPVMTGMTPLEDCVISFSQCAGAEKESLTFLANLLGASVQEYFVRKSNAKKGMFASTHLILKERGGSKYEAAKKWNLPAVTIAWLLETARTGKRADESHFLIENSTKEERSLETEITNGINLNSDTAEHP | no | strongly compromised
